Measured values published in patent US20220356239A1 (JIANGSU HENGRUI MEDICINE, published 2022).

T1: Human IL-5 amino acid sequence with his tag (rhIL-5-his) (human, UniProt P05113 20-134)
T1 sequence: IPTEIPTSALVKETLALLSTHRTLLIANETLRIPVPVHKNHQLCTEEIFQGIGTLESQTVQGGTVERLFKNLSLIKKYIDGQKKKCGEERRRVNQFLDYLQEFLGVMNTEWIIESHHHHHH


How the values were obtained:
[1] = biological target: T1, Human IL-5 amino acid sequence with his …; assay: cell-based or functional assay
[2] = biological target: T1, Human IL-5 amino acid sequence with his …; assay: cell-based or functional assay; remark: listed apart in the source
[3] = biological target: T1, Human IL-5 amino acid sequence with his …; assay: FACS blocking of biotin-IL-5 binding to IL-5Rα/β CHO-S cells
Method: Particular method: CHO-S-IL-5Rα and β were cultivated with CD-CHO containing […] and 25 ng/ml zeozin, and the concentration during cell culture was no more than 3×10⁶ cells/ml. The IL-5Rα/β-CHOS cells in good condition were centrifuged (1000 rpm, 5 min), washed once with 10% FBS in PBS, counted, the cell concentration was adjusted to 4×10⁶ cells/ml, and 25 μl of which was added to 96-well plate with round bottom. Antibodies to be tested were diluted with PBS solution containing 10% FBS, with an initial concentration of 200 μg/ml, and 8 gradients were obtained by 1:10 dilution. 25 μl of 100 ng/ml IL-5 labeled with Biotin Labeling Kit (Dojindo Chemical, LK03), was uniformly mixed with 50 μl of each diluted antibody, added into the 96-well plate to which the cells has been added, and incubated at 4° C. for 1 hour. After the incubation, centrifuged at 4° C. (400 g, 5 min), the supernatant was discarded, centrifuged and washed with 200 μl of pre-cooled PBS, repeat twice; PE-Avidin secondary antibody diluted at 1:1333 was added and incubated in darkness at […] for 40 min, the supernatant was discarded after being centrifuged at 4° C. […] The plate was read on instrument, and IC50 values for IL-5 antibodies to block the binding between IL-5 and IL-5Rα/β were calculated based on the fluorescence signal values.

[4] = biological target: T1, Human IL-5 amino acid sequence with his …; assay: Biacore T200 SPR, antibody captured on Protein A chip, antigen in flow, 1:1 Langmuir fit
Method: The affinity between the test humanized IL-5 antibodies and human IL-5 was determined by using Biacore T200 (GE) instrument.
Molecules to be tested were affinity-captured by Protein A biosensor chip, and then the antigen (prepared in Example 1) was flowed through the surface of the chip, and the reaction signals were detected in real time by using Biacore T200 instrument to obtain binding and dissociation curves. After the dissociation of each cycle of experiment was completed, the biosensor chip was washed and regenerated with glycine-hydrochloric acid regeneration solution (pH 1.5). The data was fitted to the (1:1) Langmuir model by using BIAevaluation version 4.1 GE software, and the affinity values were obtained as shown in Table 14.

Binder | IC50 of inhibition of IL-5-induced proliferation of TF1 cells [1] [nM] | IC50 of blocking IL-5-induced eosinophil adhesion [2] [ng/mL] | IC50 [3] [µg/mL] | Kd [4] [nM]
h1706-006 (antibody, human IgG1, kappa, V domains shown) VH: EVQLVESGGGLVQPGGSLRLSCAASGFTFSHYYMAWVRQAPGKGLEWVSSINYEGNSAYYGDSVKGRFTISRDNSKNTLYLQMNSLRAEDTAVYYCATETLRESLDYWGQGTMVTVSS VL: DIQMTQSPSSVSASVGDRVTITCRASQDIGNYLSWYQQKPGKSPKLLIYSASNLEVGVPSRFSGSGSGTDFTLTISSLQPEDFATYYCLQHKQFPRTFGGGTKVEIKR | 0.34 |  |  | 
h1706-007 (antibody, human IgG1, kappa, V domains shown) VH: EVQLVESGGGLVQPGGSLRLSCAASGFTFSHYYMAWVRQAPGKGLEWVTSINYEGNSAYYGDSVKGRFTISRDNSKNTLYLQMNSLRAEDTATYYCATETLRESLDYWGQGTMVTVSS VL: DIQMTQSPSSVSASVGDRVTITCRASQDIGNYLSWYQQKPGKSPKLLIYSASNLEVGVPSRFSGSGSGTDFTLTISSLQPEDFATYYCLQHKQFPRTFGGGTKVEIKR | 0.28 |  |  | 
h1706-004 (antibody, human IgG1, kappa, V domains shown) VH: EVQLVESGGGLVQPGGSLRLSCAASGFTFSHYYMAWVRQAPGKGLEWVTSINYEGNSAYYGDSVKGRFTISRDNSKNTLYLQMNSLRAEDTATYYCATETLRESLDYWGQGTMVTVSS VL: DIQMTQSPSSVSASVGDRVTITCRASQDIGNYLSWYQQKPGKAPKLLIYSASNLEVGVPSRFSGSGSGTDFTLTISSLQPEDFATYYCLQHKQFPRTFGGGTKVEIKR | 0.3 |  |  | 
h1705-007 (antibody, human IgG1, kappa, V domains shown) VH: EVQLVESGGGLVQPGGSLRLSCAASGFTFSHYYMAWVRQAPGKGLEWVSSISYEGDITYYGDSVKGRFTISRDNSKNTLYLQMNSLRAEDTAVYYCASQTLRESFDYWGQGTLVTVSS VL: DIQMTQSPSSVSASVGDRVTITCRASQDIANYLSWYQQKPGKSPKLLIYGTSNLEVGVPSRFSGSRSGTDFTLTISSLQPEDFATYYCLQDKEFPRTFGGGTKVEIKR | 0.25 |  |  | 
h1705-005 (antibody, human IgG1, kappa, V domains shown) VH: EVQLVESGGGLVQPGGSLRLSCAASGFTFSHYYMAWVRQAPGKGLEWVTSISYEGDITYYGDSVKGRFTISRDNSKNTLYLQMNSLRAEDTATYYCASQTLRESFDYWGQGTLVTVSS VL: DIQMTQSPSSVSASVGDRVTITCRASQDIANYLSWYQQKPGKAPKLLIYGTSNLEVGVPSRFSGSGSGTDFTLTISSLQPEDFATYYCLQDKEFPRTFGGGTKVEIKR | 0.3 |  |  | 
h1705-008 (antibody, human IgG1, kappa, V domains shown) VH: EVQLVESGGGLVQPGGSLRLSCAASGFTFSHYYMAWVRQAPGKGLEWVTSISYEGDITYYGDSVKGRFTISRDNSKNTLYLQMNSLRAEDTATYYCASQTLRESFDYWGQGTLVTVSS VL: DIQMTQSPSSVSASVGDRVTITCRASQDIANYLSWYQQKPGKSPKLLIYGTSNLEVGVPSRFSGSRSGTDFTLTISSLQPEDFATYYCLQDKEFPRTFGGGTKVEIKR | 0.2 | 4.85 |  | 
h1705-010 (antibody, human IgG1, kappa, V domains shown) VH: EVQLVESGGGLVQPGGSLRLSCAASGFTFSHYYMAWVRQAPGKGLEWVSSISYEGDITYYGDSVKGRFTISRDNSKNTLYLQMNSLRAEDTAVYYCASQTLRESFDYWGQGTLVTVSS VL: DIQMTQSPSSVSASVGDRVTITCRASQDIANYLSWYQQKPGKSPKLVIYGTSNLEVGVPSRFSGSRSGSDYTLTISSLQPEDFATYFCLQDKEFPRTFGGGTKVEIKR | 0.3 |  |  | 
h1706-009 (antibody, human IgG1, kappa, V domains shown) VH: EVQLVESGGGLVQPGGSLRLSCAASGFTFSHYYMAWVRQAPGKGLEWVSSINYEGNSAYYGDSVKGRFTISRDNSKNTLYLQMNSLRAEDTAVYYCATETLRESLDYWGQGTMVTVSS VL: DIQMTQSPSSVSASVGDRVTITCRASQDIGNYLSWYQQKPGKSPKLMIYSASNLEVGVPSRFSGSGSGTDYTLTISSLQPEDFATYFCLQHKQFPRTFGGGTKVEIKR | 0.25 | 4.3 |  | 
h1705-004 (antibody, human IgG1, kappa, V domains shown) VH: EVQLVESGGGLVQPGGSLRLSCAASGFTFSHYYMAWVRQAPGKGLEWVSSISYEGDITYYGDSVKGRFTISRDNSKNTLYLQMNSLRAEDTAVYYCASQTLRESFDYWGQGTLVTVSS VL: DIQMTQSPSSVSASVGDRVTITCRASQDIANYLSWYQQKPGKAPKLLIYGTSNLEVGVPSRFSGSGSGTDFTLTISSLQPEDFATYYCLQDKEFPRTFGGGTKVEIKR | 0.3 |  |  | 
h1705-011 (antibody, human IgG1, kappa, V domains shown) VH: EVQLVESGGGLVQPGGSLRLSCAASGFTFSHYYMAWVRQAPGKGLEWVTSISYEGDITYYGDSVKGRFTISRDNSKNTLYLQMNSLRAEDTATYYCASQTLRESFDYWGQGTLVTVSS VL: DIQMTQSPSSVSASVGDRVTITCRASQDIANYLSWYQQKPGKSPKLVIYGTSNLEVGVPSRFSGSRSGSDYTLTISSLQPEDFATYFCLQDKEFPRTFGGGTKVEIKR | 0.28 |  |  | 
h1706-003 (antibody, human IgG1, kappa, V domains shown) VH: EVQLVESGGGLVQPGGSLRLSCAASGFTFSHYYMAWVRQAPGKGLEWVSSINYEGNSAYYGDSVKGRFTISRDNSKNTLYLQMNSLRAEDTAVYYCATETLRESLDYWGQGTMVTVSS VL: DIQMTQSPSSVSASVGDRVTITCRASQDIGNYLSWYQQKPGKAPKLLIYSASNLEVGVPSRFSGSGSGTDFTLTISSLQPEDFATYYCLQHKQFPRTFGGGTKVEIKR | 0.31 |  |  | 
h1773-007 (antibody, human IgG1, kappa, V domains shown) VH: EVQLVESGGGLVQPGGSLKLSCAASGFTISNTYIHWVKQASGKGLEWIGRIDPAVGDTKHGPKFQGRFTISADDSKNTAYLQMNSLKTEDTAVYYCFRYGIYPDHWGQGTLVTVSS VL: DIQLTQSPSSLSASVGDRVTITCSASSSVNYIYWYQQKPGKSPKPWIYLTATLASGVPSRFSGSGSGTDFTLTISSLQPEDFATYYCQQWNSYPYTFGGGTKVEIKR | 0.38 |  |  | 
Hu39D10 (antibody, human IgG4 S228P, kappa, V domains shown) VH: EVQLVESGGGLVQPGGSLRLSCAVSGLSLTSNSVNWIRQAPGKGLEWVGLIWSNGDTDYNSAIKSRFTISRDTSKSTVYLQMNSLRAEDTAVYYCAREYYGYFDYWGQGTLVTVSS VL: DIQMTQSPSSLSASVGDRVTITCLASEGISSYLAWYQQKPGKAPKLLIYGANSLQTGVPSRFSGSGSATDYTLTISSLQPEDFATYYCQQSYKFPNTFGQGTKVEVKR | 0.3 | 11.8 |  | 
h1779-014 (antibody, human IgG1, kappa, V domains shown, h1779_VH.1D + h1779_VL.1A; IgG1 (YTE) / kappa constant regions) VH: EVQLVQSGAEVKKPGASVKVSCKASGYTFTDYIIHWVKQAPGQGLEWIGYFNPNSGGSNYNENFKRKATMTADKSISTAYLEFSRLRSEDTAVYYCARRIAWDHWYFDFWGQGTMVTVSS VL: DIQMTQSPSSLSASVGDRVTITCLASEGISNDVAWYQQKPGKSPKLLIYAASRLQDGVPSRFSGSGSGTDFTFTISSLQPEDIATYYCQQGYKTPLTFGQGTKLEIKR | 0.2 |  | 0.0496 | 0.412
h1780-017 (antibody, human IgG1, kappa, V domains shown) VH: EVQLVQSGAEVKKPGASVKVSCKASGYTFTEYLIHWVRQAPGQGLEWIGYINPYSGGTVYNEKFKSRATLTVDKSISTAYMEFSRLRSDDTAVYYCARDGGYSDPLDYWGQGTMVTVSS VL: DTVLTQSPATLSLSPGERATLSCRASEGLTSYMHWYQQKPGQAPRLLIYKASNLASGVPARFSGSGSGTDFTLTISSLEPEDFATYFCQQNWNDPWTFGGGTKVEIKR | 0.16 | 21.2 |  | 
